In patent publication US20240092930A1 (MABWELL SHANGHAI BIOSCIENCE, published 2024):
Like-named read-outs stand apart in the source and are kept apart here.

Columns and labels:
[1] = molecular target: T1, human Trop-2 on the surface of cells (CHO/Trop-2 cells; BxPC-3 cells; NCI-N87 cells) (human, UniProt P09758 27-323); experiment: FACS, CHO/Trop-2 cells
T1 construct: whole, on cells; One molecule for all cell lines; the cell line is named under assay or readout; also called Trop-2 on the surface of CHO cells; recombinant human Trop-2 protein on the surface of CHO cells
T1 sequence (looked up): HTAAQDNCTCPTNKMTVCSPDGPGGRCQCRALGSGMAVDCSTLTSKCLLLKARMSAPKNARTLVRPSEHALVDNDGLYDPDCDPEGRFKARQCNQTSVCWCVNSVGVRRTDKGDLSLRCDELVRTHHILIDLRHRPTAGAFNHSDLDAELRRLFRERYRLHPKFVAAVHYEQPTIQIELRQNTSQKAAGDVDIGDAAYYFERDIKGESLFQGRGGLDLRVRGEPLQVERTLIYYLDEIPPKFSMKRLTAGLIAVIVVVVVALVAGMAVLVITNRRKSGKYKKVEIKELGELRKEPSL
Protocol: Suspensions of CHO cells recombinantly expressing human Trop-2 (CHO/Trop-2 cells) were incubated with chimeric antibodies ch3-11, ch4-3, ch17-1, ch11-4, and ch23-12 (dilutions at concentrations of 30 μg/ml and 10 μg/ml, and serial dilutions of 9 concentrations obtained through 3-fold serially diluting a solution with an initial concentration of 5 μg/ml, 11 concentrations in total) for 30 min at 37° C. Controls as follows were set: (1) Positive Control (PC): control antibody Sacituzumab; (2) Negative Control (NC): IgG1 isotype control antibody NC-IgG1. The cells were washed 3 times with PBS, and 1:100 dilution of goat anti-human IgG-FITC (Cat.: F9512, Sigma) was added into the cell which then were incubated for 30 min. Then the cells were washed 3 times with PBS again, and the Mean Fluorescence Intensity (MFI) of the cells was measured by a flow cytometer (model B49007AD, SNAW31211, BECKMAN COULTER) to detect binding ability of the chimeric antibodies to human Trop-2 on the surface of CHO cells.

[2] = molecular target: T1, human Trop-2 on the surface of cells …; experiment: cell-based or functional assay
[3] = molecular target: T2, recombinant human Trop-2-his protein (ACCESSION NO.: NP_002344.2, AA 1-274) (human, UniProt P09758 27-274); experiment: BLI, antibody on AHC sensor, Trop-2-his 60 nM
T2 construct: range 27-274; also called recombinant human Trop-2 protein; recombinant human Trop-2 extracellular domain; not shown: his tag
T2 sequence (looked up): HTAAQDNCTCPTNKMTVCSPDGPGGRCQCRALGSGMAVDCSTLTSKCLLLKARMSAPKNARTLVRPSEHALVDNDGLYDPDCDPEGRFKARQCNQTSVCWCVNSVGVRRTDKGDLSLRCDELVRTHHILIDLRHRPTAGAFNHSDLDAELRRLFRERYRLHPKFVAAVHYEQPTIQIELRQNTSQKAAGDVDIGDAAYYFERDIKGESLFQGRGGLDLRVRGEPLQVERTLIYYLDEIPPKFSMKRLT
Protocol: 5-6 days after cell transfection, culture supernatants were purified through ProA affinity chromatography column to obtain different humanized antibodies. Affinities of the obtained antibodies were determined by an assay including capturing Fc fragments of the antibodies with anti-human IgG Fc capture (AHC) biosensors using Octet QKe system instrument from Fortebio. For the assay, each of the humanized antibodies and control antibody Sacituzumab was diluted to 4 μg/ml in PBS, and was allowed to flow through the surface of an AHC biosensor (Cat.: 18-0015, PALL) for 120 s. Recombinant human Trop-2-his protein (ACCESSION NO.: NP_002344.2, AA 1-274) was used as a mobile phase, and its concentration was 60 nM. The binding time was 100 s and the dissociation time was 300 s. When the assay was finished, data from which the response values of blank control had been deducted were fitted to a 1:1 Langmuir binding model using software, and then kinetic constants for antigen-antibody binding were calculated.
Affinities of the antibodies obtained from the combinations of mutants of murine antibody 11-4, chimeric antibody ch11-4 and control antibody Sacituzumab to recombinant human Trop-2-his protein were determined by ForteBio (Table 11).

[4] = molecular target: T2, recombinant human Trop-2-his protein …; experiment: BLI, antibody on AHC sensor, Trop-2-his 60 nM; remark: listed apart in the source
How it was run: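 Humanized antibodies at 4 μg/ml in PBS captured via Fc on anti-human IgG Fc (AHC) biosensors for 120 s; 60 nM Trop-2-his (AA 1-274) as analyte, 100 s association, 300 s dissociation. Blank-subtracted responses fitted to 1:1 Langmuir model for kinetic constants.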

EC50 [1]: 2320 pM | Internalization percentage (%), 1 h, BxPC-3 cells, FACS [2]: 17.2% | Internalization percentage (%), 3 h, BxPC-3 cells, FACS [2]: 21.8% | Internalization percentage (%), 5 h, BxPC-3 cells, FACS [2]: 20.4% | Kd [3]: 784 pM | Kd [4]: 723 pM
B1: Sacituzumab (antibody, human IgG1, kappa, V domains shown)
VH: QVQLQQSGSELKKPGASVKVSCKASGYTFTNYGMNWVKQAPGQGLKWMGWINTYTGEPTYTDDFKGRFAFSLDTSVSTAYLQISSLKADDTAVYFCARGGFGSSYWYFDVWGQGSLVTVSS
VL: DIQLTQSPSSLSASVGDRVSITCKASQDVSIAVAWYQQKPGKAPKLLIYSASYRYTGVPDRFSGSGSGTDFTLTISSLQPEDFAVYYCQQHYITPLTFGAGTKVEIKR
notes: expressed in HEK293; also called control antibody Sacituzumab; Saituzumab
